The experiment has as its target Erbb-3-Fc (RND systems) (UniProt P21860). The experiment is described as follows: SPR (Biacore T100), monovalent affinity; column head 'KD on Her3 (nM)'; PB4188 on CM5 chip, Her3-Fc in solution. Background: In SPR one partner is held on a chip, and binding of the other changes the refractive index at the surface.

Here are results for one substance from patent US20210206875A1, “ERBB-2 TARGETING AGENT AND A BISPECIFIC ANTIBODY WITH ANTIGEN-BINDING SITES THAT BIND AN EPITOPE ON AN EXTRACELLULAR PART OF ERB-2 AND ERBB-3, FOR TREATMENT OF AN INDIVIDUAL WITH AN ERBB-2, ERBB-2/ERBB-3 POSITIVE TUMOUR” (Merus N.V., priority 2017, published 2021).

pKd: −log10 of the molar value.

For orientation: pKd means the Kd on a negative log10 scale, so that one unit is a factor of ten. High values mean a small Kd, low ones a large Kd. As for “PB4188 (MF3958 x MF3178) (bispecific antibody)”, the negative-log Kd (pKd) was 8.41.
